Test results reported in patent US12072338B2, “Pharmaceutical peptides for the treatment of inflammatory diseases” (PROTAGONISTS LTD., priority 2007, dated 2024).
Like-named read-outs stand apart in the source and are kept apart here.

How the values were obtained:
MIP3-α = biological target: T1, MIP3-α (Homo sapiens, UniProt P78556); assay: Micro-array analysis of chemokine binding peptides: MIP3-α
T1 construct: purchased 300-29A
Description: (1) Printing: Chemokine (CK) solution (in water) was serially diluted with Print Reagent (GenTel BioSurfaces USA) to final concentrations of 50 μg and 25 μg/ml. BSA/BSA-Biotin control solutions (in water) were diluted with Print Reagent to 100 μg/ml. Amplified stock of M13 phage control (M13KEgIII Cloning Vector, New England Biolabs, Cat.No.E8101S) was stored in Tris Buffered Saline (TBS; pH7.5, 4° C.) and diluted with Print Reagent to the working titre (10^8 pfu/μl). An automated spotting robot (16 pin print tool, 0.4 mm head; BioRobotics, UK) was used to print the CK/BSA control/M13 control, 5 repeats per sample (CK 25 μg/ml and 50 μg/ml; BSA 100 μg/ml; M13 20 μl), on PATH Protein Microarray Slides (GenTel, Prod.No. 2-1005/-1025) at […], and 50-70% relative humidity. Printed micro-array slides were stored at Room Temperature (RT) or 4° C. for at least 24 h before use. […]
(§1) (11) Analysis: Quantitative analysis of micro-array was performed by the SpotReader program of Niles Scientific (USA) and presented as Relative Fluorescence (RF) as a function of CK concentration. Micro-array readout (Cy3 fluorescence) was quantified to determine the relative binding affinities of a CBP for the CKs and by inference, the specificity of the CBP for binding to a CK.

Exodus-2 = biological target: T2, Exodus-2 (Homo sapiens, UniProt O00585); assay: Micro-array analysis of chemokine binding peptides: Exodus-2
T2 construct: purchased 300-35
T2 sequence (O00585 24-134): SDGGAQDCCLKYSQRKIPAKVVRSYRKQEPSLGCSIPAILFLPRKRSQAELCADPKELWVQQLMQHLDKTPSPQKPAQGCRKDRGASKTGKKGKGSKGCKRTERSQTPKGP
How it was run: (§2)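 Spot CK 25/50 μg/ml, 5 repeats; block 1 h RT; recombinant phage 10^7 pfu/μl, 1 h RT, agitation; anti-M13 mAb 45 min RT; Cy3 GAM IgG; scan, RF vs CK conc.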

IP-10 = biological target: T3, IP-10 (Homo sapiens, UniProt P02778); assay: Micro-array analysis of chemokine binding peptides: IP-10
T3 construct: purchased 300-12
T3 sequence (P02778 22-98): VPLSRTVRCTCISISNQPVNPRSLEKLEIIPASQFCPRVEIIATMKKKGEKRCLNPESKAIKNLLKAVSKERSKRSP
How it was run: as §2

C-TAC = biological target: T4, C-TAC (Homo sapiens, UniProt Q9Y4X3); assay: Micro-array analysis of chemokine binding peptides: C-TAC
T4 construct: purchased 300-54
T4 sequence (Q9Y4X3 25-112): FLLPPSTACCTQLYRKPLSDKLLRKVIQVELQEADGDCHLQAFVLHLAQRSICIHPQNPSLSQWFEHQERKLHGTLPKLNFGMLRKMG
Description: (1) Printing: Chemokine (CK) solution (in water) was serially diluted with Print Reagent (GenTel BioSurfaces USA) to final concentrations of 50 μg and 25 μg/ml. BSA/BSA-Biotin control solutions (in water) were diluted with Print Reagent to 100 μg/ml. Amplified stock of M13 phage control (M13KEgIII Cloning Vector, New England Biolabs, Cat.No.E8101S) was stored in Tris Buffered Saline (TBS; pH7.5, 4° C.) and diluted with Print Reagent to the working titre (10^8 pfu/μl). An automated spotting robot (16 pin print tool, 0.4 mm head; BioRobotics, UK) was used to print the CK/BSA control/M13 control, 5 repeats per sample (CK 25 μg/ml and 50 μg/ml; BSA 100 μg/ml; M13 20 μl), on PATH Protein Microarray Slides (GenTel, Prod.No. 2-1005/-1025) at […], and 50-70% relative humidity. Printed micro-array slides were stored at Room Temperature (RT) or 4° C. for at least 24 h before use.
(2) Blocking: Block Buffer (500 μl/partition; PATHblock, GenTel, Prod.No. 2-1014) was applied to the slide for 1 hour at room temp (RT). After removal of Block Buffer, the slide was air dried for 25 minutes;
(3) Phage Presented Peptide Binding: Amplified recombinant phage stock was stored in TBS and diluted with Wash Buffer to working titer (10^7 pfu/μl). Recombinant phage suspension (300 μl) was applied per partition and incubated at RT for 1 hour with gentle agitation.
(4) First Washing: The slides were washed twice with Wash Buffer 300 μl/partition).
(5) Primary Antibody (Ab) Labeling: The slides were incubated with the Primary Ab (1 mg/ml diluted ×2500 (Wash Reagent), 300 μl; Mouse Anti-M13 monoclonal Ab; Amersham Biosciences, UK; Product Code 27-9420-01) for 45 minutes at RT. […]
as §1

Lymphotactin = biological target: T5, Lymphotactin (Homo sapiens, UniProt P47992); assay: Micro-array analysis of chemokine binding peptides: Lymphotactin
T5 construct: purchased 300-20
T5 sequence (P47992 22-114): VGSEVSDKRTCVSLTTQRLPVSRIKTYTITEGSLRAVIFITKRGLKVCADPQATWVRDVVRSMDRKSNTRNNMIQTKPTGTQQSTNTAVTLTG
How it was run: as §2

T1 sequence (P78556 27-96): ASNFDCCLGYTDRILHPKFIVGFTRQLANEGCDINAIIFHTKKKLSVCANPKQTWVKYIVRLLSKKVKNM

Sequence	binding to MIP3-α, stated in words (MIP3-α)	binding to Exodus-2, stated in words (Exodus-2)	binding to IP-10, stated in words (IP-10)	binding to IP-10, stated in words (IP-10; listed as P8.8)	binding to C-TAC, stated in words (C-TAC)	binding to Lymphotactin, stated in words (Lymphotactin)
WVFGAAMCK [Ph-p8.8]	bound	bound	bound	bound specifically and differentially	bound	bound
DYDYGAPC [Ph-p30]		bound			bound	bound
